Data as given in IntAct's records for PubMed 20869963.

B1: Protein Rex (Human T-cell leukemia virus 1 (strain Japan ATK-1 subtype A)), P0C205 (parent)
chain: MPKTRRRPRRSQRKRPPTPWPTSQGLDRVFFSDTQSTCLETVYKATGAPSLGDYVRPAYIVTPYWPPVQSIRSPGTPSMDALSAQLYSSLSLDSPPSPPREPLRPSRSLPRQSLIQPPTFHPPSSRPCANTPPSEMDTWNPPLGSTSQPCLFQTPDSGPKTCTPSGEAPLSACTSTSFPPPSPGPSCPT

Variants of: B1
Details: with dicer_human DICER1, Q9UPY3

| Variant | effect of a mutation on the interaction |
| --- | --- |
| L92A | decreasing interaction |
| L90A | decreasing interaction |

Variants of: B1
Details: with dicer_human DICER1, Q9UPY3
Remark: another data set of the same source

| Variant | effect of a mutation on the interaction |
| --- | --- |
| R6D | decreasing interaction |
| R5D | decreasing interaction |
| R7D | decreasing interaction |

Variants of: B1
Details: with dicer_human DICER1, Q9UPY3
Remark: another data set of the same source

| Variant | effect of a mutation on the interaction |
| --- | --- |
| W65L | disrupting interaction |
| Y64D | disrupting interaction |

Variants of: B1
Details: with dicer_human DICER1, Q9UPY3
Remark: another data set of the same source

| Variant | effect of a mutation on the interaction |
| --- | --- |
| F120L | disrupting interaction |
| H121L | disrupting interaction |
| T119D | disrupting interaction |
